# From patent US20160310607A1, “CELL TRANSPORT” (CUPID PEPTIDE COMPANY LIMITED, priority 2013, published 2016)
# What was measured:
# PTEN [1] = assay: Protein phosphorylation response to cyclic AMP in starving Dictyostelium cultures (antibody detection on SDS gels); type: cell-based, Dictyostelium discoideum; conditions: pre-treated for 1 hour with 10 micromolar peptide
# Text: FIG. 10. In starving Dictyostelium cultures, several proteins undergo rapid phosphorylation/dephosphorylation events in response to an applied dose of cyclic AMP. The strength of this response is limited by PTEN enzyme activity. This response is visualised with antibody detection of these phosphoproteins on SDS gels prepared from extracted cultures at the time points indicated after the cAMP dose.
# In starving Dictyostelium cultures, several proteins undergo rapid phosphorylation/dephosphorylation events in response to an applied dose of cyclic AMP. The strength of this initial phosphorylation response is limited by PTEN enzyme activity and is associated with changes in PIP2 and PIP3 inositol phospholipid levels.
# PTEN [2] = assay: Streaming and aggregation of starved wild-type Dictyostelium cultures compared with the PTEN null mutant; type: cell-based, Dictyostelium discoideum; conditions: 10 micromolar, wild-type cells, visualised after 10 hours
# Description: FIG. 8. Cupid can transport large molecule cargo into the cell. Starved Dictyostelium cultures were plated into petri dishes in starvation buffer and visualised after 10 hours. In untreated wild-type (WT) cultures (A), cells stream together into aggregation centres, co-ordinated by cell to cell signaling.
# In Dictyostelium, a genetic mutant in which the PTEN gene is absent causes marked changes in phenotype.
# PTEN [3] = assay: Inositol phospholipid levels in starving Dictyostelium cells (solvent extraction, thin layer chromatography); type: cell-based, Dictyostelium discoideum; conditions: 10 micromolar, 1 hour, starving wild-type Dictyostelium
# Description: FIG. 9. The levels of the 4 inositol phospholipids (PI, PIP, PIP2 and PIP3) in wild-type Dictyostelium cells undergoing starvation were measured by solvent extraction of cell cultures and analysis using thin layer chromatography. The effect of Cupid B-PTEN peptide treatment (10 micromolar, 1 hour) was calculated as a percentage change in the basal (untreated) levels.
# The PTEN protein has a phospholipase enzymatic activity that functions to remove phosphate groups from inositol-based lipids and as such is involved with maintaining the balance between varieties of inositol phospholipids present at the cell surface. In wild-type cells undergoing starvation the inositol phospholipids with 3 and 4 phosphate groups (PIP2 and PIP3) are kept low, largely due to the action of PTEN.
# We determined the effect of Cupid B-PTEN peptide on the inositol phospholipid levels in Dictyostelium cultures. Cupid B-PTEN peptide treated cells (10 micromolar, 1 hour) alters the basal levels of inositol phospholipids in Dictyostelium cells.
# [4] = system: Dictyostelium discoideum amoeba cells; assay: Permeation of FITC-labelled peptides into cultured Dictyostelium cells (fluorescence microscopy); type: cell-based; conditions: FITC-labelled peptide, 20 micromolar, 1 hour
# Description: Peptides were labelled with Fluorescein isothiocyanate (FITC) using a FITC labeling kit as per instructions (Pierce, UK). When added to cell cultures the labeled peptides were visualized using a fluorescent microscope by exciting the FITC with a 488 nm spectral line, argon-ion laser (Excitation wavelength of 494 nm and an Emission wavelength of 518 nm).
# AX2 wild type Dictyostelium cells were grown on SM agar plates seeded with Aerobacter aerogenes bacteria (also known as Klebsiella aerogenes) as a food source.
# Cupid A ([…]) and Cupid B ([…]) were chemically synthesized labelled with FITC at the amino terminal. The peptides were added to cultured eukaryotic cells of Dictyostelium discoideum amoeba for varying amounts of time up to 2 hours. Cells were then washed and prepared for examination under a fluorescent microscope (FIG. 1). The time courses of permeation were compared to the class 3 CPP, the Antennapedia peptide, pANT which was also labelled with FITC in chemical synthesis (FIG. 2).
molecule,measurement,setting,value
"Cupid B-PTEN: Cupid B fused to a 167 amino acid region (C2 region, 186-352) of human PTEN, with 6x Histidine (protein, FITC label, Cupid B fused to a 167 amino acid region (C2 region, 186-352) of human PTEN, with 6x Histidine) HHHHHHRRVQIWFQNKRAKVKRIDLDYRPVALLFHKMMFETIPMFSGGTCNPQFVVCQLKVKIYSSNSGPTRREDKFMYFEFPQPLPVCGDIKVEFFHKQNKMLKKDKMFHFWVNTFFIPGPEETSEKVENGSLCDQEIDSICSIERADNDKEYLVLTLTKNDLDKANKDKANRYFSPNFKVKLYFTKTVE",initial phosphorylation response to cyclic AMP versus untreated cultures,PTEN [1],much stronger initial phosphorylation response
same,initial phosphorylation response to cyclic AMP versus untreated cultures,PTEN [1]; listed as Cupid-PTEN,much greater phosphorylation response
same,streaming/aggregation behaviour of starved wild-type Dictyostelium,PTEN [2],exhibit the same distinctive behaviour as the PTEN-Null strain
same,streaming/aggregation behaviour of starved wild-type Dictyostelium,PTEN [2]; listed as Cupid-PTEN,cells failed to stream together or aggregate
same,change of PIP2 level relative to untreated basal level,PTEN [3],+75%
same,change of PIP3 level relative to untreated basal level,PTEN [3],+150%
same,cell permeation (fluorescence microscopy),[4],cell permeable
